In patent US20210063414A1, “METHODS FOR PREVENTING AND/OR TREATING BONE LOSS CONDITIONS BY MODULATING IRISIN” (Dana-Farber Cancer Institute, Inc., priority 2018, published 2021):

Test system: sclerostin
Test: Irisin injection in mice: sclerostin mRNA in osteocyte-enriched bones and plasma sclerostin protein (ELISA)
Type: in vivo
Details: irisin IP daily for 6 days
Procedure: 8 weeks old mice were injected daily with indicated dose of irisin for 6 days. […] were collected and treated with collagenase to yield osteocyte-enriched bones. Sclerostin mRNA level from osteocyte-enriched tibia was analyzed by qPCR (FIG. 7A). Cyclophilin was used as a house-keeping gene. Plasma was collected to analyze the circulating sclerostin protein level by ELISA assay (FIG. 7B). Data are represented as mean±SEM. For FIG. 7A and FIG. 7B, n=5 animals/group. * indicates p<0.05, and *** indicates p<0.001.
Certain materials and methods were used to generate the results described herein. For example, the data shown in FIG. 1A resulted from MLO-Y4 (an osteocyte-like cell line) cells treated with the indicated concentration of irisin and hydrogen peroxide for 4 hours. Cells were stained with Hoechst 33342 (ThermoFisher Scientific, catalog number H3570) and Eth-D1 (ThermoFisher Scientific, catalog number E1169) and analyzed to determine the percentage of cell death using ImageJ. […] Co-precipitated irisin was analyzed by immunoblot analysis against flag tag (Sigma Aldrich, catalog number A8592). The data shown in FIGS. 5A and 5B were generated from MLO-Y4 cells treated and analyzed as in the experiments used to generate the data shown in FIG. 2D, except that pre-treatment of 100 nM RGDS (FIG. 5A) or echistatin (R & D Systems Inc., catalog number 3202/100U) (FIG. 5B) for 10 minutes was performed before irisin treatment. […] RNAs were extracted from the cells and the sclerostin mRNA level was analyzed by qPCR (FIG. 6A) or treated and analyzed as in (FIG. 6A), except that pre-treatment of 10 μM RGDS, RGDyK (Selleck, catalog number S7844), or echistatin was performed for 10 minutes before irisin treatment. […] Sclerostin mRNA level was analyzed by qPCR (FIG. 7A). […] Epididymal fats were collected, RNAs were extracted from the tissues, and mRNA levels of the indicated genes were analyzed by qPCR. […]

B1: irisin: secreted cleaved form of FNDC5; recombinant human/mouse irisin with C-terminal his tag produced in HEK293 cells (protein)
chain: DSPSAPVNVTVRHLKANSAVVSWDVLEDEVVIGFAISQQKKDVRMLRFIQEVNTTTRSCALWDLEEDTEYIVHVQAISIQGQSPASEPVLFKTPREAEKMASKNKDEVTMKE
modifications: left off: small tags and cut ends
notes: secreted cleaved form of FNDC5; recombinant human/mouse irisin with C-terminal his tag produced in HEK293 cells
With B1 the “sclerostin mRNA in osteocyte-enriched bones” value was “stimulated sclerostin mRNA”, the “circulating (plasma) sclerostin protein” value (ELISA) was “significant increase” and the “sclerostin mRNA in osteocyte-enriched bones” value (listed as recombinant irisin) was “raised the sclerostin mRNA level”.
